Results reported in paper PMC6927759.
pKd: −log10 of the molar value.

Columns and labels:
[1] = biological target: human IL-13 (Homo sapiens) (UniProt P35225); experiment: SPR
[2] = biological target: anti-IL-13 IgG4 variant VH Y98L (human (humanized antibody)); experiment: SPR

| Substance | kon [1] | pKd [1] | koff [1] | pKd [2] | koff [2] | kon [2] |
| --- | --- | --- | --- | --- | --- | --- |
| anti-IL-13 IgG4 (lebrikizumab), parent (antibody) | 2.16e+06 M⁻¹ s⁻¹ | – | – | – | – | – |
| anti-IL-13 IgG4 variant VH Y97L (antibody) | 2.08e+06 M⁻¹ s⁻¹ | > 11.00 | < 0.0001 s⁻¹ | – | – | – |
| anti-IL-13 IgG4 variant VH Y100Q (antibody) | – | 8.48 | 0.00331 s⁻¹ | – | – | – |
| human IL-13 (from UniProt P35225 25-146) (ligand) | – | – | – | 10.12 | 8.76e-05 s⁻¹ | 1.16e+06 M⁻¹ s⁻¹ |
